IntAct's records for PubMed 23737971

B1: Ras-related protein Rab-6A (Homo sapiens), P20340-1 (parent)
chain: MSTGGDFGNPLRKFKLVFLGEQSVGKTSLITRFMYDSFDNTYQATIGIDFLSKTMYLEDRTVRLQLWDTAGQERFRSLIPSYIRDSTVAVVVYDITNVNSFQQTTKWIDDVRTERGSDVIIMLVGNKTDLADKRQVSIEEGERKAKELNVMFIETSAKAGYNVKQLFRRVAAALPGMESTQDRSREDMIDIKLEKPQEQPVSEGGCSC
partner: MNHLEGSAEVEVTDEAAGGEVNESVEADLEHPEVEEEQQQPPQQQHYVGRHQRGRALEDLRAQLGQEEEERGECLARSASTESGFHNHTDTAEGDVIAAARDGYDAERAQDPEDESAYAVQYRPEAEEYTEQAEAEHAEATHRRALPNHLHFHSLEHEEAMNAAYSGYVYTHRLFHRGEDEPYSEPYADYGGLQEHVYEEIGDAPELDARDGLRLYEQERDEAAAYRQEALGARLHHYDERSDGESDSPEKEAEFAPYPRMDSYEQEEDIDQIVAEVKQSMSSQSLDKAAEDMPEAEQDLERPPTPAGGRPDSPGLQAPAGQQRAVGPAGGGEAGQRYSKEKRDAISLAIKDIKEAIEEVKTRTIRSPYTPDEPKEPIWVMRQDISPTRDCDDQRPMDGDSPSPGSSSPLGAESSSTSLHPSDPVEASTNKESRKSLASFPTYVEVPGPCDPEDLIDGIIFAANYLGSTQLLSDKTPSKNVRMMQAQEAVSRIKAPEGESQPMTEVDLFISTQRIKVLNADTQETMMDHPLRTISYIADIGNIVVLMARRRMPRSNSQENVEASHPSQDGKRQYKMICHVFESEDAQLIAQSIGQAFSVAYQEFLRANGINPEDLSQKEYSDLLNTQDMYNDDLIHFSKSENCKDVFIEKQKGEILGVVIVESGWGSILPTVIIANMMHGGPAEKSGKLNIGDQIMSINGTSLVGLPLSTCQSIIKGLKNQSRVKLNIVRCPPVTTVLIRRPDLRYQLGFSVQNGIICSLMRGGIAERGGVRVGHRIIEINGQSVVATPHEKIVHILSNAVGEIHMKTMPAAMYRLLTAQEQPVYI
B2: Ras-related protein Rab-6A (Homo sapiens), P20340-1 (parent)
chain: B1 chain
partner: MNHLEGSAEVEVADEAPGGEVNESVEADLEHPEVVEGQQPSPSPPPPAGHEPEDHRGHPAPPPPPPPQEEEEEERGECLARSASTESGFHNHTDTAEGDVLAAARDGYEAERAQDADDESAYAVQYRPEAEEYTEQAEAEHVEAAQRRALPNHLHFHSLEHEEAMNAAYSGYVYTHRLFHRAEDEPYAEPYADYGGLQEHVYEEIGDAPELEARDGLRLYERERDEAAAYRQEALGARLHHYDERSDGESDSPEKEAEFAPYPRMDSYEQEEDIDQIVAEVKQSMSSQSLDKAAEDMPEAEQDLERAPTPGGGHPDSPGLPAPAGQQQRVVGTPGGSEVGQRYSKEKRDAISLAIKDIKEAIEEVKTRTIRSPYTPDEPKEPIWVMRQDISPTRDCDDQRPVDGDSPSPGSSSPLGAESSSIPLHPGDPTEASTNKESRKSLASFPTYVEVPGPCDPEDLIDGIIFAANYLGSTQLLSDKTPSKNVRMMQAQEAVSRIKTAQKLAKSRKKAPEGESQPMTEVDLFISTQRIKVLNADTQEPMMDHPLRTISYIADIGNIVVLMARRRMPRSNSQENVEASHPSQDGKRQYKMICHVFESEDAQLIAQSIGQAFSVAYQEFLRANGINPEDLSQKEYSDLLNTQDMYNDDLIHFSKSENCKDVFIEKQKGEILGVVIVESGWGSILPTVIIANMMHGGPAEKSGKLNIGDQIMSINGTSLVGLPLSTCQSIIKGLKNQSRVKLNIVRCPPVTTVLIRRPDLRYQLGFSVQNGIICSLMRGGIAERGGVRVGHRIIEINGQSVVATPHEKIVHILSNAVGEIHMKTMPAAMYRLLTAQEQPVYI
B3: Ras-related protein Rab-6B (Homo sapiens), Q9NRW1 (parent)
chain: MSAGGDFGNPLRKFKLVFLGEQSVGKTSLITRFMYDSFDNTYQATIGIDFLSKTMYLEDRTVRLQLWDTAGQERFRSLIPSYIRDSTVAVVVYDITNLNSFQQTSKWIDDVRTERGSDVIIMLVGNKTDLADKRQITIEEGEQRAKELSVMFIETSAKTGYNVKQLFRRVASALPGMENVQEKSKEGMIDIKLDKPQEPPASEGGCSC
partner: B1 partner

Variants of: B1
Conditions: with APBA1, Q02410-2

effect of a mutation on the interaction | Variant
disrupting interaction | T27N

Variants of: B2
Conditions: with apba1_mouse Apba1, B2RUJ5

effect of a mutation on the interaction | Variant
disrupting interaction | T27N

Variants of: B3
Conditions: with APBA1, Q02410-2

effect of a mutation on the interaction | Variant
disrupting interaction | T27N
